Data reported in publication PMC2568807.

Target: ovine CRY1 (Cryptochrome 1), Flag-tagged (sheep)

- attenuation of oCRY1 repression of oCLK/oBM1-induced oRev-erb alpha luciferase reporter transactivation in COS7 cells (100 or 200 ng Fbxl vector): 75%
Substance: ovine Fbxl21 full-length, Myc-tagged (from UniProt B3FL73 1-434) (natural protein)
